Laboratory results taken from patent publication US20160289285A1 (Molecular Partners, published 2016).
Each block holds one binder with its values, some of them ahead of it.

Columns and labels:
human HGF [1] = biological target: T1, human HGF (human, UniProt P14210 32-728); experiment: ELISA; species of HGF not stated
T1 construct: also called hepatocyte growth factor

human HGF [2] = biological target: T1, human HGF; experiment: ELISA, EC50 comparison
human VEGF-A [3] = biological target: T2, human VEGF-A (human, UniProt P15692-4 27-191, limits assumed); experiment: ELISA, EC50 comparison
T2 construct: Recombinant, bought or produced in CHO or Pichia pastoris; also called hVEGF-A

human VEGF-A [4] = biological target: T2, human VEGF-A; experiment: ELISA; species of VEGF-A not stated
human HGF [5] = biological target: T1, human HGF; experiment: SPR (ProteOn)
Experimental: SPR was measured using a ProteOn instrument (BioRad) and measurement was performed according standard procedures known to the person skilled in the art.

human HGF [6] = biological target: T1, human HGF; experiment: cMet receptor competition ELISA; 5 nM human HGF, immobilised human cMet
Excerpt: (§1) Such assays are well known to the person skilled in the art. For designed ankyrin repeat domains with binding specificity to VEGF-A, a quantitative sandwich enzyme immunoassay technique was used according to the manufacturer (VEGF-A Quantikine kit DVE00, R&D Systems). A monoclonal antibody specific for VEGF-A was pre-coated onto a microplate. VEGF-A standards and mixtures of VEGF-A (20 pM) and Protein #18, #19, or #20 at varying concentrations were applied to the wells and any free VEGF-A present (i.e. not bound to the designed ankyrin repeat domain) is bound by the immobilized antibody. After washing away any unbound substances, an enzyme-linked polyclonal antibody specific for VEGF-A is added to the wells. Following a wash to remove any unbound antibody-enzyme reagent, a substrate solution is added to the wells and color develops in proportion to the amount of VEGF-A bound in the initial step. The color development is stopped and the intensity of the color is measured. […] IC₅₀ values were calculated from such titration curves obtained as described above using Graph Pad Prism software and standard procedures known to the person skilled in the art. For designed ankyrin repeat domains with binding specificity to HGF, a cMet receptor competition assay was performed. For that purpose, 5 nM of human cMet receptor in PBS were immobilized on Maxisorp plates overnight at 4° C. After washing with PBS 0.05% TWEEN 20, the plate was blocked for 2 h with shaking at 300 rpm using PBS containing 0.05% TWEEN 20 and 0.25% Casein at RT. A constant concentration of 5 nM human HGF was pre-incubated for 30 min at RT with a 1000 nM-1 pM of Proteins #23, #26, #28, and #29 (1:4 dilution series each) on a dilution plate in PBS 0.05% TWEEN 20. After washing of the ELISA plate with PBS 0.05% TWEEN, pre-incubated samples were transferred to the ELISA plate and plate was incubated for 2 h at RT with shaking at 300 rpm. After washing with PBS 0.25% TWEEN, 200 ng/ml anti human HGF antibody was added for 1 h at RT with shaking at 300 rpm. After washing with PBS 0.05% TWEEN, 100 ng/ml HRP conjugated polyclonal anti HGF species antibody was added for 30 min at RT with shaking at 300 rpm. Detection was using 1:3 diluted BM blue POD (Roche).

human serum albumin = biological target: T3, human serum albumin (human, UniProt P02768 25-609); experiment: ELISA, immobilised human serum albumin
T3 construct: For SEC-MALS purified from CSL Behring 20% solution; also called HSA; SA (human)
Experimental: 100 μl or 50 μl of 20 nM target (VEGF-A, HGF, or serum albumin) in PBS per well were immobilized in a Maxisorp plate (Nunc, Denmark) overnight at 4° C. After washing 5 times with 300 μl PBST (PBS supplemented with 0.1% Tween 20), the wells were blocked with 300 μl PBST-C (PBST supplemented with 0.25% casein) for 2 h at room temperature with shaking at 450 rpm on a Titramax 1000 shaker (Heidolph, Germany). […] After washing 5 times as described above, bound anti-designed ankyrin repeat domain antibody was detected using 100 μl or 50 μl/well goat anti-rabbit IgG-HRP conjugate in PBST-C for 1 h at room temperature with shaking at 450 rpm. After washing 5 times as described above, the ELISA was then developed using 100 μl BM soluble blue POD substrate (Roche, Switzerland), diluted 1:4 in water. The reaction was stopped after 5 min using 100 μl 1 M H₂SO₄. The OD (OD 450 nm-OD 620 nm) was then recorded.
Cynomolgus monkey VEGF-A is identical to human VEGF-A and was thus not tested separately.

human VEGF-A [7] = biological target: T2, human VEGF-A; experiment: VEGF-A Quantikine competition ELISA; competitor: immobilised anti-VEGF-A monoclonal antibody
Excerpt: as §1, with “After washing with PBS 0.05% TWEEN, 100 ng/ml HRP conjugated polyclonal anti HGF species antibody was added for 30 min at RT with shaking at 300 rpm. Detection was using 1:3 diluted BM blue POD (Roche).” left out

T2 sequence (P15692 other isoform, or with tags, fused parts or gaps limits assumed): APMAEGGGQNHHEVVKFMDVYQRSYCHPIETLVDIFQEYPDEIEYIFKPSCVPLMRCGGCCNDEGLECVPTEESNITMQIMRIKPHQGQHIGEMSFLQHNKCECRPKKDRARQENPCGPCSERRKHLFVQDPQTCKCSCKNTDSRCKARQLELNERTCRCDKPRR
T1 sequence (P14210 32-728 limits assumed): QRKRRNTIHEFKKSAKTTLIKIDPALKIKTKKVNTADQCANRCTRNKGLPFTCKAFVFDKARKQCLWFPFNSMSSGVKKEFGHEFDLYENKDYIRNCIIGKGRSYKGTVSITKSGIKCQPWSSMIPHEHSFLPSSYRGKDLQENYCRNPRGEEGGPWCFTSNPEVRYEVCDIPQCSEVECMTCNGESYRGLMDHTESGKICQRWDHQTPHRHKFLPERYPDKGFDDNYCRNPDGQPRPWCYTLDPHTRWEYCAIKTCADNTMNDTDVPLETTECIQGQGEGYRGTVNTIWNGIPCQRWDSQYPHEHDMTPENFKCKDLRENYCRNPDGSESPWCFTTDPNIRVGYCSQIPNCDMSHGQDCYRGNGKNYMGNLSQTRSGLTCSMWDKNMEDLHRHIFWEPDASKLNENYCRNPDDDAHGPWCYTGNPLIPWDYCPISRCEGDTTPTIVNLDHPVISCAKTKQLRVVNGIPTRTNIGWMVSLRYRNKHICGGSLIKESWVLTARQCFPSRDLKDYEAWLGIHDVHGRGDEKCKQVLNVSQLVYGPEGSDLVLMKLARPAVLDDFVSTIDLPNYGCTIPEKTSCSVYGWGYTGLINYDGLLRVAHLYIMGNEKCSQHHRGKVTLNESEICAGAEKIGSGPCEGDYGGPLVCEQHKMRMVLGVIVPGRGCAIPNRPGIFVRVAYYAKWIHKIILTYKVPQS
T3 sequence (P02768 25-609 limits assumed): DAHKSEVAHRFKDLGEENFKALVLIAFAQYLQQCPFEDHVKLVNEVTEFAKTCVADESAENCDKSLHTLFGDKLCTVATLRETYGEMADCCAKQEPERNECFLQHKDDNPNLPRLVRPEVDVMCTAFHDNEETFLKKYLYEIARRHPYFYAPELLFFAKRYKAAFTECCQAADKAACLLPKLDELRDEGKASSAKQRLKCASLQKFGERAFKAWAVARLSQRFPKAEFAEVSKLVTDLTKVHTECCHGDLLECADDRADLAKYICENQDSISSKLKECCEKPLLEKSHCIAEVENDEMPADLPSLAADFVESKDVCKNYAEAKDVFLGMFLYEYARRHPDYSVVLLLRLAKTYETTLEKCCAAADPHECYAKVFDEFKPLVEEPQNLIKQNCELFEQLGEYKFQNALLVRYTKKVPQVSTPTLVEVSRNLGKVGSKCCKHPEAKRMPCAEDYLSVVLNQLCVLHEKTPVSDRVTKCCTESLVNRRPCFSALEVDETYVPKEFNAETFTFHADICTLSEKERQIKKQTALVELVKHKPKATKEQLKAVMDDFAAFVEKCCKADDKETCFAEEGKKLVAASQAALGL

- EC50 (human HGF [1]): 0.107 nM
- factor more potent (EC50) than Protein #69 (human HGF [2]): 1.1 fold
- factor more potent (EC50) than Protein #69 (human VEGF-A [3]): 1.4 fold
- EC50 (human VEGF-A [4]): 0.073 nM
B1: Protein #107 (designed binder)
chain: MRGSHHHHHHGSDLGKKLLEAARAGQDDEVRELLKAGADVNAKDYFSHTPLHLAARNGHLKIVEVLLKAGADVNAKDFAGKTPLHLAANDGHLEIVEVLLKAGADVNAQDIFGKTPADIAADAGHEDIAEVLQKAAGSPTPTPTTPTPTPTTPTPTPTGSDLDKKLLEAARAGQDDEVRILLKAGADVNAKDSTGWTPLHLAAPWGHPEIVEVLLKAGADVNAKDYQGWTPLHLAAAVGHLEIVEVLLKAGADVNAQDKSGKTPADLAADAGHEDIAEVLQKAAGSPTPTPTTPTPTPTTPTPTPTGSDLGKKLLEAARAGQDDEVRILLKAGADVNAKDRYGDTPLHLAADAGHLKIVEVLLKAGADVNAEDYFGNTPLHLAASAGHLEIVEVLLKAGADVNAKDDAGNTPLHLAANTGHLKIVEVLLKAGADVNAQDKSGKTPADLAADAGHEDIAEVLQKAAGSPTPTPTTPTPTPTTPTPTPTGSDLGKKLLEAARAGQDDEVRELLKAGADVNAKDYFSHTPLHLAARNGHLKIVEVLLKAGADVNAKDFAGKTPLHLAANDGHLEIVEVLLKAGADVNAQDIFGKTPADIAADAGHEDIAEVLQKAA

- EC50 (human serum albumin): 0.322 nM
B3: Protein #61 (designed binder)
chain: MRGSHHHHHHGSDLGKKLLEAARAGQDDEVRELLKAGADVNAKDYFSHTPLHLAARNGHLKIVEVLLKAGADVNAKDFAGKTPLHLAANEGHLEIVEVLLKAGADVNAQDIFGKTPADIAADAGHEDIAEVLQKAAGSPTPTPTTPTPTPTTPTPTPTGSDLDKKLLEAARAGQDDEVRILLKAGADVNAKDSTGWTPLHLAAPWGHPEIVEVLLKAGADVNAKDFQGWTPLHLAAAAGHLEIVEVLLKAGADVNAQDKSGKTPADLAADAGHEDIAEVLQKAA

- EC50 (human HGF [1]): 0.179 nM
- EC50 (human VEGF-A [4]): 0.205 nM
B8: Protein #71 (designed binder)
chain: MRGSHHHHHHGSDLGKKLLEAARAGQDDEVRILMANGADVNAKDYFSHTPLHLAARNGHLKIVEVLLKAGADVNAKDFAGKTPLHLAANDGHLEIVEVLLKHGADVNAQDIFGKTPADIAADAGHEDIAEVLQKLGGGGSGGGGSGGGGSGGGGSRSDLDKKLLEAARAGQDDEVRILLKAGADVNAKDYLGWTPLHLAAHEGHLEIVEVLLKAGADVNAKDVSGYTPLHLAAADGHLEIVEVLLKAGADVNAKDNTGWTPLHLSADLGHLEIVEVLLKAGADVNAQDKFGKTAFDISIDNGNEDLAEILQKLGGGGSGGGGSGGGGSGGGGSRSDLGKKLLEAARAGQDDEVRILLKAGADVNAKDRYGDTPLHLAADAGHLKIVEVLLKAGADVNAEDYFGNTPLHLAASAGHLEIVEVLLKAGADVNAKDDAGNTPLHLAANTGHLKIVEVLLKAGADVNAQDKSGKTPADLAADAGHEDIAEVLQKLN

- EC50 (human serum albumin): 0.225 nM
B9: Protein #60 (designed binder)
chain: MRGSHHHHHHGSDLGKKLLEAARAGQDDEVRELLKAGADVNAKDYFSHTPLHLAARNGHLKIVEVLLKAGADVNAKDFAGKTPLHLAANEGHLEIVEVLLKAGADVNAQDIFGKTPADIAADAGHEDIAEVLQKAAGSPTPTPTTPTPTPTTPTPTPTGSDLGKKLLEAARAGQDDEVRILLKAGADVNAKDRYGDTPLHLAADIGHLEIVEVLLKAGADVNAEDYFGNTPLHLAASYGHLEIVEVLLKAGADVNAKDDYGNTPLHLAANTGHLEIVEVLLKAGADVNAQDKSGKTPADLAADAGHEDIAEVLQKAA

- EC50 (human HGF [1]): 0.117 nM
- factor more potent (EC50) than Protein #71 (human HGF [2]): 1.3 fold
- factor more potent (EC50) than Protein #71 (human VEGF-A [3]): 2 fold
- EC50 (human VEGF-A [4]): 0.102 nM
B11: Protein #69 (designed binder)
chain: MRGSHHHHHHGSDLGKKLLEAARAGQDDEVRILMANGADVNAKDYFSHTPLHLAARNGHLKIVEVLLKAGADVNAKDFAGKTPLHLAANDGHLEIVEVLLKHGADVNAQDIFGKTPADIAADAGHEDIAEVLQKLGSPTPTPTTPTPTPTTPTPTPTGSRSDLDKKLLEAARAGQDDEVRILLKAGADVNAKDYLGWTPLHLAAHEGHLEIVEVLLKAGADVNAKDVSGYTPLHLAAADGHLEIVEVLLKAGADVNAKDNTGWTPLHLSADLGHLEIVEVLLKAGADVNAQDKFGKTAFDISIDNGNEDLAEILQKLGSPTPTPTTPTPTPTTPTPTPTGSRSDLGKKLLEAARAGQDDEVRILLKAGADVNAKDRYGDTPLHLAADAGHLKIVEVLLKAGADVNAEDYFGNTPLHLAASAGHLEIVEVLLKAGADVNAKDDAGNTPLHLAANTGHLKIVEVLLKAGADVNAQDKSGKTPADLAADAGHEDIAEVLQKLN

The remaining lines, values behind:

B2: Protein #29 (designed binder)
chain: MRGSHHHHHHGSDLGKKLLEAARAGQDDEVRILMANGADVNAKYEDGLTPLHLAAFYGHLEIVEVLLKHGADVNATDAWGHTPLHLAAYYGHLEIVEVLLKYGADVNTHDKEGMTALHLAALTGHLEIVEVLLKNGADVNAQDKFGKTAFDISIDNGNEDLAEILQKAA
- Kd (human HGF [5]): 0.025 nM
- IC50 (human HGF [6]): 1.36 nM

B4: Protein #26 (designed binder)
chain: MRGSHHHHHHGSDLGKKLLEAARAGQDDEVRILLKAGADVNAKDRYGDTPLHLAADIGHLEIVEVLLKAGADVNAEDYFGNTPLHLAASYGHLEIVEVLLKAGADVNAKDDYGNTPLHLAANTGHLEIVEVLLKAGADVNAQDKSGKTPADLAADAGHEDIAEVLQKAA
- Kd (human HGF [5]): 0.051 nM
- IC50 (human HGF [6]): 0.623 nM

B5: Protein #20 (designed binder)
chain: MRGSHHHHHHGSDLDKKLLEAARAGQDDEVRILLKAGADVNAKDSTGWTPLHLAAPWGHPEIVEVLLKAGADVNAKDFQGWTPLHLAAAVGHLEIVEVLLKAGADVNAQDKSGKTPADLAADAGHEDIAEVLQKAA
- IC50 (human VEGF-A [7]): 0.004 nM

B6: Protein #18 (designed binder)
chain: MRGSHHHHHHGSDLDKKLLEAARAGQDDEVRILLKAGADVNAKDSTGWTPLHLAAPWGHPEIVEVLLKAGADVNAKDFQGWTPLHLAAAAGHLEIVEVLLKAGADVNAQDKSGKTPADLAADAGHEDIAEVLQKAA
- IC50 (human VEGF-A [7]): 0.013 nM

B7: Protein #19 (designed binder)
chain: MRGSHHHHHHGSDLGKKLLEAARAGQDDEVRILLKAGADVNAKDSTGWTPLHLAAPWGHPEIVEVLLKAGADVNAKDFQGWTPLHLAAAAGHLEIVEVLLKAGADVNAQDKSGKTPADLAADAGHEDIAEVLQKAA
- IC50 (human VEGF-A [7]): 0.013 nM

B10: Protein #28 (designed binder)
chain: MRGSHHHHHHGSDLGMKLLEAARAGQDDEVRILMANGADVNAHDTWGLTPLHLAAFHGHQEIVEVLLKHGADVNAQDFYGKTPLHLAALRGHLEIVEVLLKYGADVNAQDQFGKTAFDISIDNGNEDLAEILQKAA
- Kd (human HGF [5]): 0.026 nM
- IC50 (human HGF [6]): 0.955 nM

B12: Protein #23 (designed binder)
chain: MRGSHHHHHHGSDLGKKLLEAARAGQDDEVRILMANGADVNAKDRFGDTPLHLAADIGHLKIVEVLLKHGADVNAEDWFGNTPLHLAASMGHLEIVEVLLKYGADVNAMDDYGNTPLHLAANTGHLEIVEVLLKHGADVNAQDKFGKTAFDISIDNGNEDLAEILQKAA
- Kd (human HGF [5]): 0.016 nM
- IC50 (human HGF [6]): 0.915 nM
